Measurements: the supplement of paper PMC11908140

B1: library; numbered along this chain (parent)
chain: MRKPRAAVGSGHRKQAASQEGRQKHAKNNSQAKPSACDGLARQPEEVVLQASVSSYHLFRDVAEVTAFRGSLLSWYDQEKRDLPWRRRAEDEMDLDRRAYAVWVSEVMLQQTQVATVINYYTGWMQKWPTLQDLASASLEEVNQLWAGLGYYSRGRRLQEGARKVVEELGGHMPRTAETLQQLLPGVGRYTAGAIASIAFGQATGVVDGNVARVLCRVRAIGADPSSTLVSQQLWGLAQQLVDPARPGDFNQAAMELGATVCTPQRPLCSQCPVESLCRARQRVEQEQLLASGSLSGSPDVEECAPNTGQCHLCLPPSEPWDQTLGVVNFPRKASRKPPREESSATCVLEQPGALGAQILLVQRPNSGLLAGLWEFPSVTWEPSEQLQRKALLQELQRWAGPLPATHLRHLGEVVHTFSHIKLTYQVYGLALEGQTPVTTVPPGARWLTQEEFHTAAVSTAMKKVFRVYQGQQPGTCMGSKRSQVSSPCSRKKPRMGQQVLDNFFRSHISTDAHSLNSAAQ

Variants of: B1
Assay: 8OG:A repair function score (normalized; synonymous = 0, nonsense = -1) (normalized log-likelihood score); higher = more repair activity (WT-like)
Conditions: with 8OG:A DNA repair reporter (GFP) in HEK-293 MUTYH KO cells
Description: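 Saturation mutagenesis (NNN codon scan) of the MUTYH cDNA (521-aa nuclear isoform NM_001048174.1 / NP_001041639), stably expressed under doxycycline induction in HEK-293 MUTYH knockout cells. Cells were co-transfected with an 8OG:A-bearing GFP repair reporter plus mCherry and sorted 72 h later into GFP+ and GFP− bins, three replicates per tile. The Rosace log2 enrichment (GFP+ vs GFP−) was converted per tile to a normalized function score with synonymous variants centered at 0 and nonsense variants (codons 1-471) at -1; low-abundance variants were removed.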

In order of rising “8OG:A repair function score” value:
1. R154E  -1.23
2. W103N  -1.2
3. F330D  -1.15
4. R154D  -1.11
5. A192Y  -1.07
6. L149Q  -1.06
7. R154F  -1.05
8. R81C  -1.02
9. G205I  -0.994
10. L349N  -0.957
11. M173N  -0.945
12. Y121M  -0.933
13. G205D  -0.933
14. G188M  -0.929
15. F59G  -0.925
16. V362G  -0.901
17. L184Q  -0.899
18. F453P  -0.896
19. V207N  -0.883
20. G170P  -0.872
21. W374G  -0.847
22. W124S  -0.825
23. A371D  -0.824
24. L369E  -0.807
25. L180W  -0.713
26. L403D  -0.686
27. W124H  -0.678
28. G188H  -0.662
29. L149Y  -0.657
30. L109H  -0.619
31. L430K  -0.617
32. L373C  -0.611
33. R246A  -0.605
34. D249K  -0.584
35. A457I  -0.537
36. R246S  -0.535
37. W124V  -0.516
38. I118K  -0.483
39. F330T  -0.478
40. V211A  -0.477
41. E385K  -0.468
42. A223I  -0.454
43. L149F  -0.43
44. Y121W  -0.427
45. L448E  -0.411
46. R279V  -0.344
47. T130L  -0.336
48. V211Y  -0.329
49. A456M  -0.328
50. A135K  -0.317
51. R81L  -0.31
52. G368Q  -0.304
53. L423E  -0.289
54. L83F  -0.285
55. W399F  -0.284
56. E451F  -0.282
57. A162V  -0.278
58. T455F  -0.273
59. T424D  -0.256
60. W321P  -0.252
61. V211M  -0.251
62. G401H  -0.241
63. K3M  -0.238
64. T439D  -0.225
65. L387A  -0.21
66. K127I  -0.204
67. D133C  -0.201
68. Q388S  -0.201
69. V104M  -0.192
70. R163A  -0.182
71. G326R  -0.176
72. V438G  -0.176
73. A194S  -0.169
74. K80N  -0.162
75. Q394K  -0.158
76. R189V  -0.148
77. S343P  -0.144
78. K333S  -0.141
79. R60E  -0.127
80. S153Q  -0.127
81. H407C  -0.123
82. E395R  -0.122
83. E287P  -0.121
84. A291D  -0.119
85. R163I  -0.115
86. Q388T  -0.108
87. L315A  -0.104
88. A245I  -0.104
89. A345M  -0.102
90. L325C  -0.0972
91. L229M  -0.0886
92. Q50G  -0.0798
93. L290D  -0.0753
94. L277N  -0.0739
95. K3C  -0.0701
96. Q288V  -0.068
97. N366G  -0.066
98. A357G  -0.0641
99. E342Y  -0.0601
100. R279K  -0.0521
101. T380C  -0.0502
102. L268Y  -0.046
103. P320N  -0.0442
104. A405Q  -0.0438
105. D96Q  -0.0411
106. L277I  -0.036
107. R88W  -0.0355
108. V468H  -0.0347
109. L295M  -0.0314
110. S510D  -0.0311
111. Q78W  -0.0301
112. G293N  -0.03
113. S490C  -0.0291
114. R283Q  -0.0283
115. T476L  -0.0267
116. K493L  -0.025
117. L139R  -0.0247
118. L268N  -0.0234
119. Q271S  -0.0229
120. S480I  -0.0226
121. G297Q  -0.0223
122. Q271Y  -0.0212
123. E382I  -0.0196
124. L58Y  -0.0187
125. L295Y  -0.0185
126. P316K  -0.0182
127. L387W  -0.0182
128. G497I  -0.0179
129. S486C  -0.016
130. E167R  -0.0147
131. S486K  -0.0131
132. S507K  -0.0064
133. S294R  -0.00624
134. Q271L  -0.00321
135. R88V  -0.0028
136. A212C  -0.00168
137. T308S  -0.000367
138. A36E  0.00159
139. N517S  0.00189
140. P442S  0.00212
141. T476D  0.00347
142. E90R  0.0046
143. S54C  0.00525
144. L277M  0.00781
145. G297C  0.00942
146. T449R  0.00957
147. L290I  0.0122
148. D133N  0.0132
149. S487D  0.0137
150. N143Y  0.0152
151. E167F  0.0154
152. Q521H  0.0162
153. E167D  0.018
154. M478W  0.0205
155. E452T  0.0217
156. R157N  0.023
157. G39P  0.0274
158. Q394A  0.04
159. T439A  0.0597
160. L387Q  0.0651
161. S343M  0.0865
162. K390S  0.0865
163. Q388D  0.0946
164. G170Q  0.0993
165. T130D  0.137
166. A405E  0.199
167. L139N  0.213
